# Several values for one entry are separate records, joined by “and”; a condition that tells them apart may be missing. Equal values may be shown once.
# T1: Rat IL-13 (rat, UniProt P42203 19-131, limits assumed)
# T1 sequence (looked up): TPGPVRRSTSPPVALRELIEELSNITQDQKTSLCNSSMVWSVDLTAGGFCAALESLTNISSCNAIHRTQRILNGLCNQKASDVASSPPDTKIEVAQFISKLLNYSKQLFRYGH
# B1: Ab652 (humanised anti-human IL-13 Fab, graft gL1gH2) (Fab, V domains shown)
# VH: QVTLKESGPVLVKPTETLTLTCTVSGFSLTNYHVQWIRQPPGKALEWLGVMWSDGDTSFNSVLKSRLTISRDTSKSQVVLTMTNMDPVDTATYYCARDGTIAAMDYFDYWGQGTLVTVSS
# VL: DIQMTQSPSSLSASVGDRVTITCLASEDISNYLAWYQQKPGKAPKLLIYHTSRLQDGVPSRFSGSGSGTDFTLTISSLQPEDFATYYCQQGYRFPLTFGGGTKVEIKR
# notes: also called Ab652 Fab
# How the values were obtained:
# human IL-13 (wild type) [1] = target: T2, human IL-13 (wild type) (human, UniProt P35225 35-146); assay: Biacore 3000 SPR; purified Ab652 Fab captured by anti-human F(ab')2, hIL-13 as analyte; average of the table's runs
# T2 construct: All wild-type human IL-13 preparations are written as this one molecule; also called hIL-13; recombinant human IL-13
# T2 sequence (P35225 35-146 limits assumed): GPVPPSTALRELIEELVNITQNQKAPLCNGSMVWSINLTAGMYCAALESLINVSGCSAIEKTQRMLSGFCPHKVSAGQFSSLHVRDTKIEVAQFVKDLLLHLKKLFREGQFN
# Description: (§1) BIA (Biamolecular Interaction Analysis) was performed using a BIAcore 3000 (BIAcore AB). Affinipure F(ab′)₂ Fragment, goat anti-human IgG, F(ab′)₂ fragment specific (Jackson ImmunoResearch) was immobilised on a CM5 Sensor Chip via amine coupling chemistry to a capture level of ≈4000 response units (RUs). A blank surface was prepared in a similar way, omitting the F(ab′)₂ fragment from the procedure. HBS-EP buffer (10 mM HEPES pH 7.4, 0.15 M NaCl, 3 mM EDTA, 0.005% Surfactant P20, BIAcore AB) was used as the running buffer with a flow rate of 10 μl/min. A 10 μl injection of Ab652 Fab at ˜0.2 μg/mL was used for capture by the immobilised anti-human IgG-F(ab′)₂ to allow sufficient IL-13 binding but also to minimise mass transport limited binding effects. Human IL13 was titrated over the captured Ab652 at various concentrations (10 nM to 0.31 nM) at a flow rate of 30 μL/min The surface was regenerated by a 10 μl it injection of 40 mM HCl, followed by a 5 μl it injection of 5 mM NaOH at a flowrate of 10 μL/min
# (§2) Background subtraction binding curves were analysed using the BIAevaluation software (version 3.2) following standard procedures. Kinetic parameters were determined from the fitting algorithm.
# human IL-13 (wild type) [2] = target: T2, human IL-13 (wild type); assay: Biacore 3000 SPR; Ab652 Fab captured by immobilised anti-human F(ab')2, hIL-13 titrated as analyte; average of 3 determinations
# Description: as §1, §2
# Rat IL-13 = target: T1, Rat IL-13; assay: cell-based or functional assay
# [3] = target: variant human IL-13 (R130Q) (human) (UniProt P35225); assay: cell-based or functional assay
# Sequence of variant human IL-13 (R130Q) (human) (P35225 35-146, stated change not applied): as the sequence (P35225 35-146 limits assumed) above
# cynomolgus monkey IL-13 [4] = target: T3, cynomolgus monkey IL-13 (cynomolgus monkey, UniProt Q0PW92 21-132); assay: cell-based or functional assay
# T3 sequence (Q0PW92 entry or part of it): as the sequence (P35225 35-146 limits assumed) above, with G1S, R10K, M42V, S67N, H83R, L100V counted along it
# human IL-13 (wild type) [5] = target: T2, human IL-13 (wild type); assay: cell-based or functional assay
# cynomolgus monkey IL-13 [6] = target: T3, cynomolgus monkey IL-13; assay: cell-based or functional assay; remark: listed apart in the source
binder,measurement,setting,value
B1,Kd,human IL-13 (wild type) [1],0.0134 nM and 0.013 nM
same,koff,human IL-13 (wild type) [1],6.27e-05 s⁻¹
same,kon,human IL-13 (wild type) [1],4.82e+06 M⁻¹ s⁻¹
same,Kd,human IL-13 (wild type) [2],0.0152 nM and 0.015 nM
same,koff,human IL-13 (wild type) [2],6.52e-05 s⁻¹
same,kon,human IL-13 (wild type) [2],4.51e+06 M⁻¹ s⁻¹
same,"IC50 of Ab652, HEK Blue assay; recombinant mammalian cell derived rat IL-13 (transfected HEK293 supernatant), n = 1",Rat IL-13,953 ng/ml and 20000 pM
same,"IC50 Ab652 Fab, HEK-Blue STAT-6 assay; IL-13 source natural human T cell, R130Q variant (250 pg/ml)",[3],1.66 ng/mL
same,"IC50 Ab652 Fab, HEK-Blue STAT-6 assay; cynomolgus IL-13 on human receptor (1/4,000 = 250 pg/ml)",cynomolgus monkey IL-13 [4],1.61 ng/mL
same,"IC50 Ab652 Fab, HEK-Blue STAT-6 assay; IL-13 source E. coli-derived, wild type (250 pg/ml)",human IL-13 (wild type) [5],1.05 ng/mL
same,"IC50 Ab652 Fab, HEK-Blue STAT-6 assay; IL-13 source mammalian (rat fibroblasts), wild type (250 pg/ml)",human IL-13 (wild type) [5],0.57 ng/mL
same,"IC50 Ab652 Fab, HEK-Blue STAT-6 assay; IL-13 source natural human T cell, wild type (250 pg/ml)",human IL-13 (wild type) [5],2.12 ng/mL
same,"IC50 Ab652 Fab, HEK-Blue STAT-6 assay; nebulised Fab (IL-13 source of this row not given)",human IL-13 (wild type) [5],1.15 ng/mL
same,"neutralisation potency against cynomolgus IL-13 relative to human IL-13 from rat fibroblasts, HEK Blue assay",cynomolgus monkey IL-13 [6],≤ 3 fold
